Data on 16 sequences can be found in the supplement of paper PMC10724198.

± gives the standard deviation of the averaged measurements.

Data set [1] concerns Saccharomyces cerevisiae. Briefly: protein stability index of tFT-peptide fusion (C-terminal peptide) (PSI (0-1 scale)); higher = more stable (slower turnover). As to conditions: genetic background: wild type; temperature: 30 C.
The test system of data set [2] is Saccharomyces cerevisiae. The description is as above. On the procedure: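 MPS profiling in S. cerevisiae of the tFT-X12 degron library: putative degron peptides plus stable controls, 12 aa, fused to the C-terminus of a sfGFP-mCherry timer. Cells are FACS-sorted into 8 mCherry/sfGFP bins and deep-sequenced. PSI runs from 0 (unstable) to 1 (stable). Backgrounds are wild type, das1Δ and doa10Δ at 30 °C, and wild type, das1Δ, cdc34-1 and cdc53-1 at 37 °C; 2-3 technical replicates each.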

Setting [3] is: genetic background: cdc34-1, temperature: 37 C.
Setting [4] is: genetic background: cdc53-1, temperature: 37 C.
Setting [5] is: genetic background: das1 deletion, temperature: 30 C.
The mark [6] stands for this setting: genetic background: das1 deletion, temperature: 37 C.
[7] abbreviates: genetic background: doa10 deletion, temperature: 30 C.
Setting [8] is: genetic background: wild type, temperature: 30 C.
Setting [9] is: genetic background: wild type, temperature: 37 C.
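Also: PSI is a weighted mean of sequencing reads over stability bins, variants kept only with over 10 reads, mCherry proximal and sfGFP distal, peptide attached via GGGS linker.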

Consider ARFCFRIFSFAS, for which the protein stability index turned out to be 0.0816 ± 0.0097 in the data set on Saccharomyces cerevisiae [1]; 0.159 ± 0.018 in the data set with Saccharomyces cerevisiae [2] (setting [3]); 0.178 ± 0.0049 in the data set on Saccharomyces cerevisiae [2] (setting [4]); 0.288 ± 0.032 in the data set on Saccharomyces cerevisiae [2] (setting [5]); 0.168 ± 0.0092 with Saccharomyces cerevisiae [2] (setting [6]); 0.0406 ± 0.0038 with Saccharomyces cerevisiae [2] (setting [7]). For the same sequence, the protein stability index with Saccharomyces cerevisiae [2] (setting [8]) worked out at 0.0456 ± 0.0018; with Saccharomyces cerevisiae [2] (setting [9]), 0.0722 ± 0.018.

On to ASCFFLFVLRVF, for which the protein stability index with Saccharomyces cerevisiae [1] was 0.233 ± 0.041; with Saccharomyces cerevisiae [2] (setting [3]), 0.0589 ± 0.0071; in the data set on Saccharomyces cerevisiae [2] (setting [4]), 0.113 ± 0.0091; in the data set on Saccharomyces cerevisiae [2] (setting [5]) it was 0.169 ± 0.016; with Saccharomyces cerevisiae [2] (setting [6]) it was 0.271 ± 0.0072; with Saccharomyces cerevisiae [2] (setting [7]) it was 0.13 ± 0.0043. Besides, the protein stability index with Saccharomyces cerevisiae [2] (setting [8]) worked out at 0.112 ± 0.017; with Saccharomyces cerevisiae [2] (setting [9]), 0.14 ± 0.019.

For ATLWVWCFSSHV, the protein stability index amounted to 0.497 ± 0.078 with Saccharomyces cerevisiae [1]; 0.601 ± 0.047 with Saccharomyces cerevisiae [2] (setting [3]); 0.6418 ± 0.003 in the data set on Saccharomyces cerevisiae [2] (setting [4]); 0.469 ± 0.019 in the data set with Saccharomyces cerevisiae [2] (setting [5]); 0.62 ± 0.013 in the data set with Saccharomyces cerevisiae [2] (setting [6]); 0.438 ± 0.023 in the data set with Saccharomyces cerevisiae [2] (setting [7]). The protein stability index in the data set on Saccharomyces cerevisiae [2] (setting [8]) worked out at 0.447 ± 0.021; in the data set with Saccharomyces cerevisiae [2] (setting [9]) it was 0.5991 ± 0.0014.

On to ATSGATILVLIA, for which the protein stability index came to 0.307 ± 0.0047 in the data set on Saccharomyces cerevisiae [1]; 0.569 ± 0.014 with Saccharomyces cerevisiae [2] (setting [3]); 0.65 ± 0.0048 in the data set on Saccharomyces cerevisiae [2] (setting [4]); 0.488 ± 0.024 in the data set on Saccharomyces cerevisiae [2] (setting [5]); 0.6473 ± 0.0042 in the data set on Saccharomyces cerevisiae [2] (setting [6]); 0.188 ± 0.0099 with Saccharomyces cerevisiae [2] (setting [7]). Moreover, the figures for the protein stability index in the data set with Saccharomyces cerevisiae [2] (setting [8]) and in the data set with Saccharomyces cerevisiae [2] (setting [9]) were 0.218 ± 0.021 and 0.342 ± 0.0064, respectively.

On to CEVLVVVMCLWG, for which the protein stability index in the data set with Saccharomyces cerevisiae [1] was determined as 0.285 ± 0.024; in the data set on Saccharomyces cerevisiae [2] (setting [3]), 0.199 ± 0.0023; in the data set with Saccharomyces cerevisiae [2] (setting [4]), 0.295 ± 0.043; in the data set with Saccharomyces cerevisiae [2] (setting [5]), 0.224 ± 0.029; in the data set on Saccharomyces cerevisiae [2] (setting [6]) it was 0.3738 ± 0.0025; in the data set with Saccharomyces cerevisiae [2] (setting [7]), 0.196 ± 0.006. For the same sequence, the protein stability index in the data set with Saccharomyces cerevisiae [2] (setting [8]) came out at 0.217 ± 0.025; in the data set with Saccharomyces cerevisiae [2] (setting [9]) it was 0.32342 ± 4.2e-05.

Regarding CFFPFLCFVVGA, the protein stability index in the data set on Saccharomyces cerevisiae [1] turned out to be 0.445 ± 0.017; with Saccharomyces cerevisiae [2] (setting [3]), 0.482 ± 0.021; with Saccharomyces cerevisiae [2] (setting [4]), 0.492 ± 0.023; in the data set on Saccharomyces cerevisiae [2] (setting [5]), 0.358 ± 0.025; with Saccharomyces cerevisiae [2] (setting [6]), 0.514 ± 0.0085; with Saccharomyces cerevisiae [2] (setting [7]) it was 0.3205 ± 0.0017. For the same sequence, the protein stability index is 0.346 ± 0.013 in the data set on Saccharomyces cerevisiae [2] (setting [8]) and 0.49 ± 0.0059 in the data set with Saccharomyces cerevisiae [2] (setting [9]).

Regarding CLFFFFFHLPIF, the protein stability index in the data set on Saccharomyces cerevisiae [1] was found to be 0.472 ± 0.032; in the data set on Saccharomyces cerevisiae [2] (setting [3]) it was 0.445 ± 0.022; in the data set with Saccharomyces cerevisiae [2] (setting [4]), 0.508 ± 0.016; in the data set with Saccharomyces cerevisiae [2] (setting [5]), 0.425 ± 0.026; in the data set with Saccharomyces cerevisiae [2] (setting [6]), 0.533 ± 0.033; in the data set on Saccharomyces cerevisiae [2] (setting [7]), 0.4011 ± 0.00062. In addition, the protein stability index in the data set with Saccharomyces cerevisiae [2] (setting [8]) was 0.389 ± 0.023; in the data set with Saccharomyces cerevisiae [2] (setting [9]), 0.476 ± 0.021.

For CLFSVLFPLFFR, the protein stability index with Saccharomyces cerevisiae [1] was determined as 0.214 ± 0.039; with Saccharomyces cerevisiae [2] (setting [3]) it was 0.0858 ± 0.049; in the data set with Saccharomyces cerevisiae [2] (setting [4]), 0.0347 ± 0.0022; in the data set on Saccharomyces cerevisiae [2] (setting [5]), 0.137 ± 0.042; in the data set with Saccharomyces cerevisiae [2] (setting [6]), 0.158 ± 0.016; in the data set with Saccharomyces cerevisiae [2] (setting [7]), 0.6444 ± 0.0064. Also, the protein stability index with Saccharomyces cerevisiae [2] (setting [8]) stood at 0.142 ± 0.0055; in the data set on Saccharomyces cerevisiae [2] (setting [9]), 0.184 ± 0.073.

With CLGLFPSLLRLS, the protein stability index in the data set on Saccharomyces cerevisiae [1] stood at 0.325 ± 0.032; with Saccharomyces cerevisiae [2] (setting [3]), 0.666 ± 0.031; in the data set with Saccharomyces cerevisiae [2] (setting [4]) it was 0.737 ± 0.021; with Saccharomyces cerevisiae [2] (setting [5]), 0.644 ± 0.02; with Saccharomyces cerevisiae [2] (setting [6]), 0.731 ± 0.0092; in the data set on Saccharomyces cerevisiae [2] (setting [7]), 0.285 ± 0.026. The values for the protein stability index in the data set on Saccharomyces cerevisiae [2] (setting [8]) and in the data set on Saccharomyces cerevisiae [2] (setting [9]) were 0.291 ± 0.033 and 0.535 ± 0.009, respectively.

For the sequence CLLWVVWSLLWV, the protein stability index is 0.353 ± 0.095 in the data set with Saccharomyces cerevisiae [1]; 0.346 ± 0.0041 in the data set with Saccharomyces cerevisiae [2] (setting [3]); 0.432 ± 0.011 with Saccharomyces cerevisiae [2] (setting [4]); 0.283 ± 0.035 with Saccharomyces cerevisiae [2] (setting [5]); 0.4506 ± 0.0035 with Saccharomyces cerevisiae [2] (setting [6]); 0.269 ± 0.0094 with Saccharomyces cerevisiae [2] (setting [7]). In addition, the protein stability index in the data set with Saccharomyces cerevisiae [2] (setting [8]) is 0.257 ± 0.034; in the data set with Saccharomyces cerevisiae [2] (setting [9]) it was 0.416 ± 0.0074.

For the sequence CLVFGFLFFIVI, the protein stability index came to 0.404 ± 0.021 in the data set on Saccharomyces cerevisiae [1]; 0.35 ± 0.028 with Saccharomyces cerevisiae [2] (setting [3]); 0.411 ± 0.061 in the data set on Saccharomyces cerevisiae [2] (setting [4]); 0.338 ± 0.026 with Saccharomyces cerevisiae [2] (setting [5]); 0.449 ± 0.016 in the data set with Saccharomyces cerevisiae [2] (setting [6]); 0.435 ± 0.016 in the data set on Saccharomyces cerevisiae [2] (setting [7]). For the same sequence, the protein stability index was determined as 0.35 ± 0.029 in the data set on Saccharomyces cerevisiae [2] (setting [8]) and 0.447 ± 0.037 in the data set on Saccharomyces cerevisiae [2] (setting [9]).

Turning to CLWNFWVRFLLL, the protein stability index with Saccharomyces cerevisiae [1] is 0.175 ± 0.022; in the data set on Saccharomyces cerevisiae [2] (setting [3]) it was 0.298 ± 0.042; in the data set on Saccharomyces cerevisiae [2] (setting [4]), 0.406 ± 0.023; in the data set with Saccharomyces cerevisiae [2] (setting [5]), 0.399 ± 0.014; in the data set on Saccharomyces cerevisiae [2] (setting [6]), 0.509 ± 0.015; in the data set on Saccharomyces cerevisiae [2] (setting [7]) it was 0.164 ± 0.0046. Moreover, the protein stability index came out at 0.139 ± 0.01 with Saccharomyces cerevisiae [2] (setting [8]) and 0.135 ± 0.0083 in the data set on Saccharomyces cerevisiae [2] (setting [9]).

Consider CMLGVVRVLVWF, for which the protein stability index with Saccharomyces cerevisiae [1] was 0.186 ± 0.033; with Saccharomyces cerevisiae [2] (setting [3]), 0.028 ± 0.0058; in the data set on Saccharomyces cerevisiae [2] (setting [4]) it was 0.138 ± 0.075; in the data set with Saccharomyces cerevisiae [2] (setting [5]), 0.129 ± 0.029; in the data set on Saccharomyces cerevisiae [2] (setting [6]) it was 0.1929 ± 0.0009; in the data set on Saccharomyces cerevisiae [2] (setting [7]), 0.101 ± 0.0035. For the same sequence, the protein stability index in the data set with Saccharomyces cerevisiae [2] (setting [8]) is 0.105 ± 0.051; in the data set with Saccharomyces cerevisiae [2] (setting [9]) it was 0.17 ± 0.027.

As for CMLPWPILLCPF, the protein stability index in the data set with Saccharomyces cerevisiae [1] stood at 0.46 ± 0.0055; with Saccharomyces cerevisiae [2] (setting [3]) it was 0.322 ± 0.0044; in the data set with Saccharomyces cerevisiae [2] (setting [4]), 0.329 ± 0.023; with Saccharomyces cerevisiae [2] (setting [5]), 0.391 ± 0.024; in the data set on Saccharomyces cerevisiae [2] (setting [6]) it was 0.469 ± 0.023; in the data set with Saccharomyces cerevisiae [2] (setting [7]), 0.517 ± 0.022. The protein stability index with Saccharomyces cerevisiae [2] (setting [8]) stood at 0.389 ± 0.0084; in the data set on Saccharomyces cerevisiae [2] (setting [9]), 0.456 ± 0.03.

In the case of CMPVYYTVVIRL, the protein stability index is 0.296 ± 0.021 in the data set with Saccharomyces cerevisiae [1]; 0.177 ± 0.052 with Saccharomyces cerevisiae [2] (setting [3]); 0.102 ± 0.028 in the data set on Saccharomyces cerevisiae [2] (setting [4]); 0.204 ± 0.029 in the data set on Saccharomyces cerevisiae [2] (setting [5]); 0.294 ± 0.015 with Saccharomyces cerevisiae [2] (setting [6]); 0.246 ± 0.021 with Saccharomyces cerevisiae [2] (setting [7]). Also, the protein stability index in the data set on Saccharomyces cerevisiae [2] (setting [8]) stood at 0.159 ± 0.024; with Saccharomyces cerevisiae [2] (setting [9]) it was 0.31 ± 0.021.

As to CPALTFCLLLSS, the protein stability index was 0.457 ± 0.0097 with Saccharomyces cerevisiae [1]; 0.539 ± 0.051 in the data set on Saccharomyces cerevisiae [2] (setting [3]); 0.567 ± 0.0093 with Saccharomyces cerevisiae [2] (setting [4]); 0.417 ± 0.029 with Saccharomyces cerevisiae [2] (setting [5]); 0.5866 ± 0.0054 in the data set with Saccharomyces cerevisiae [2] (setting [6]); 0.427 ± 0.015 in the data set on Saccharomyces cerevisiae [2] (setting [7]). Besides, the protein stability index with Saccharomyces cerevisiae [2] (setting [8]) amounted to 0.383 ± 0.019; in the data set with Saccharomyces cerevisiae [2] (setting [9]) it was 0.557 ± 0.01.
